Data reported in patent US20130195871A1 (AbbVie / Abbott, published 2013).

Key:
EGFR on the cell surface [1] = molecular target: T1, EGFR on the cell surface (human, UniProt P00533 25-1210); test: flow cytometry on cells, 2 ug/mL
T1 construct: whole, on cells
Method: (§1) Stable cell lines overexpressing a cell-surface antigen of interest or human tumor cell lines were harvested from tissue culture flasks and resuspended in phosphate buffered saline (PBS) containing 5% fetal bovine serum (PBS/FBS). Prior to staining, human tumor cells were incubated on ice with (100 μl) human IgG at 5 μg/ml in PBS/FCS. 1-5×10⁵ cells were incubated with antibody or DVD-Ig (2 μg/mL) in PBS/FBS for 30-60 minutes on ice. […] After 30 minutes incubation on ice, cells were washed twice and resuspended in PBS/FBS. Fluorescence was measured using a Becton Dickinson FACSCalibur (Becton Dickinson, San Jose, Calif.).
(§2) The geometric mean is the n root of the multiplication product of n fluorescent signals (a1×a2×a3 . . . an). With log-transformed data the geometric mean is used to normalize the weighting of the data distribution.

[2] = molecular target: T2, ErbB3 on the cell surface (human, UniProt P21860 20-1342); test: flow cytometry on cells, 2 ug/mL, N-terminal VD
T2 construct: whole, on cells

EGFR on the cell surface [3] = molecular target: T1, EGFR on the cell surface; test: flow cytometry on cells, 2 ug/mL, C-terminal VD
Method: as §1, §2
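Also: cells stained for 30 to 60 min on ice.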

Binder	GEO MEAN (EGFR on the cell surface [1])	GEO MEAN [2]	GEO MEAN (EGFR on the cell surface [3])
AB400 (antibody, V domains shown, parent antibody) VH: EVQLVESGGGLVQPGGSLRLSCAASGFSLTNYGVHWVRQAPGKGLEWLGVGWSGGNTDYNTPFTSRLTINKDNSKNTVYLQMNSLRAEDTAVYYCARALTWYDYEFAYWGQGTLVTVSS VL: DILLTQSPGTLSLSPGERATLSCRASQSIYTNIHWYQQKPGQAPRLLIKYASESISGIPDRFSGSGSGTDFTLTISRLEPEDFAVYYCQQNLNWPTTFGQGTKLEIKR	439	–	–
DVD2297 (bispecific antibody, DVD-Ig, outer AB062 / inner AB400) VH: QVQLQQWGAGLLKPSETLSLTCAVYGGSFSGYYWSWIRQPPGKGLEWIGEINHSGSTNYNPSLKSRVTISVETSKNQFSLKLSSVTAADTAVYYCARDKWTWYFDLWGRGTLVTVSSASTKGPEVQLVESGGGLVQPGGSLRLSCAASGFSLTNYGVHWVRQAPGKGLEWLGVGWSGGNTDYNTPFTSRLTINKDNSKNTVYLQMNSLRAEDTAVYYCARALTWYDYEFAYWGQGTLVTVSS VL: DIEMTQSPDSLAVSLGERATINCRSSQSVLYSSSNRNYLAWYQQNPGQPPKLLIYWASTRESGVPDRFSGSGSGTDFTLTISSLQAEDVAVYYCQQYYSTPRTFGQGTKVEIKRTVAAPDILLTQSPGTLSLSPGERATLSCRASQSIYTNIHWYQQKPGQAPRLLIKYASESISGIPDRFSGSGSGTDFTLTISRLEPEDFAVYYCQQNLNWPTTFGQGTKLEIK	–	135	106
DVD2295 (bispecific antibody, DVD-Ig, outer AB116 / inner AB400) VH: EVQLLESGGGLVQPGGSLRLSCAASGFTFSHYVMAWVRQAPGKGLEWVSSISSSGGWTLYADSVKGRFTISRDNSKNTLYLQMNSLRAEDTAVYYCTRGLKMATIFDYWGQGTLVTVSSASTKGPEVQLVESGGGLVQPGGSLRLSCAASGFSLTNYGVHWVRQAPGKGLEWLGVGWSGGNTDYNTPFTSRLTINKDNSKNTVYLQMNSLRAEDTAVYYCARALTWYDYEFAYWGQGTLVTVSS VL: QSALTQPASVSGSPGQSITISCTGTSSDVGSYNVVSWYQQHPGKAPKLIIYEVSQRPSGVSNRFSGSKSGNTASLTISGLQTEDEADYYCCSYAGSSIFVIFGGGTKVTVLGQPKAAPDILLTQSPGTLSLSPGERATLSCRASQSIYTNIHWYQQKPGQAPRLLIKYASESISGIPDRFSGSGSGTDFTLTISRLEPEDFAVYYCQQNLNWPTTFGQGTKLEIK	–	80	317
